The data set concerns the molecule itself. Briefly: small angle neutron scattering.

B1: Chymotrypsin-truncated R67 dihydrofolate reductase (domain or fragment)
chain: VFPSNATFGMGDRVRKKSGAAWQGQIVGWYCTNLTPEGYAVESEAHPGSVQIYPVAALERIN
Take B1: the binding result is “binds”.

B2: Full-length R67 dihydrofolate reductase (enzyme)
chain: MIRSSNEVSNPVAGNFVFPSNATFGMGDRVRKKSGAAWQGQIVGWYCTNLTPEGYAVESEAHPGSVQIYPVAALERIN
With B2, the binding result was “binds”.

Values taken from paper PMC5678894 (Biochemistry, 2017).
